Measurements taken from article PMC6220267 (2018).

B1: soluble mouse Treml1‐Fc (soluble ectodomain) (Fc fusion)
chain: DSHPEVLQAPVGSSILVQCHYRLQDVRALKVWCQFLQEGCHPLVTSAVDRRAPGNGRIFLTDLGGGLLQVEMVTLQEEDTGEYGCVVEGAAGPQTLHRVSLLVLPPVPGPREGEEAEDEKETYRIGTGSLLEDPSLDPSASAGPHEFRRRENSIP
B2: soluble TREM2‐Fc (soluble ectodomain of human TREM2 fused to the Fc domain of human IgG4, V5 epitope) (Fc fusion)
chain: HNTTVFQGVAGQSLQVSCPYDSMKHWGRRKAWCRQLGEKGPCQRVVSTHNLWLLSFLRRWNGSTAITDDTLGGTLTITLRNLQPHDAGLYQCQSLHGSEADTLRKVLVEVLADPLDHRDAGDLWFPGESESFEDAHVEHSISRSLLEGEIPFPPTS
B3: soluble TREML1‐Fc (human, soluble ectodomain) (Fc fusion)
chain: QGIVGSLPEVLQAPVGSSILVQCHYRLQDVKAQKVWCRFLPEGCQPLVSSAVDRRAPAGRRTFLTDLGGGLLQVEMVTLQEEDAGEYGCMVDGARGPQILHRVSLNILPPEEEEETHKIGSLAENAFSDPAGSANPLEPSQDEKSIP
B4: soluble mouse Trem2‐Fc (soluble ectodomain) (Fc fusion)
chain: LNTTVLQGMAGQSLRVSCTYDALKHWGRRKAWCRQLGEEGPCQRVVSTHGVWLLAFLKKRNGSTVIADDTLAGTVTITLKNLQAGDAGLYQCQSLRGREAEVLQKVLVEVLEDPLDDQDAGDLWVPEESSSFEGAQVEHSTSRNQETSFPPTS

What was measured:
Test in all cases: BLI
Aβ42 oligomers (soluble) [1] = target: T1, Aβ42 oligomers (soluble) (UniProt P05067 672-713)
Aβ42 oligomers (soluble) [2] = target: T1, Aβ42 oligomers (soluble); remark: listed apart in the source
Aβ42 monomers = Aβ42 monomers (UniProt P05067 672-713)
Aβ40 monomers = Aβ40 monomers (UniProt P05067 672-711)

Binder | Kd (Aβ42 oligomers (soluble) [1]) [pM] | koff (Aβ42 oligomers (soluble) [2]) [s⁻¹] | Kd (Aβ42 monomers) [pM] | Kd (Aβ40 monomers) [pM]
B1 | 1 | 1e-07 |  | 
B2 |  |  | 290000 | 140000
B3 | 1 | 1e-07 |  | 
B4 | 1 | 1e-07 |  | 
